T1: IL-18 receptor (IL-18Rα and IL-18Rβ) (UniProt Q13478 19-541; O95256 20-599, limits assumed)
T1 sequence (looked up) 1: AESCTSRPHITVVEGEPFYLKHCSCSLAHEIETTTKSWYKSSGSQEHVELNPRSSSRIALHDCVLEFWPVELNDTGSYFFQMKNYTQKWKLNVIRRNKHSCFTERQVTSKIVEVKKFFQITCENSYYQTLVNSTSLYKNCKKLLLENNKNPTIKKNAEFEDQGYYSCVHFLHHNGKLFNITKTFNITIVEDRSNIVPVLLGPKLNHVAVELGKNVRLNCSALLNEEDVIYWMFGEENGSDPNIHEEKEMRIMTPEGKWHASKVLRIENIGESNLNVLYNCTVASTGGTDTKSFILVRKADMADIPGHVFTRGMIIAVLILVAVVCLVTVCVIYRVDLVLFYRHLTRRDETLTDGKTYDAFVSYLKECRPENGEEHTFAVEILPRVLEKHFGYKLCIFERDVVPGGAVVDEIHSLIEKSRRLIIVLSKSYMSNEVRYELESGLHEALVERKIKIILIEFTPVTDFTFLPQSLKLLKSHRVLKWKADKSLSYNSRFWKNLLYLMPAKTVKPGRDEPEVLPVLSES
T1 sequence (looked up) 2: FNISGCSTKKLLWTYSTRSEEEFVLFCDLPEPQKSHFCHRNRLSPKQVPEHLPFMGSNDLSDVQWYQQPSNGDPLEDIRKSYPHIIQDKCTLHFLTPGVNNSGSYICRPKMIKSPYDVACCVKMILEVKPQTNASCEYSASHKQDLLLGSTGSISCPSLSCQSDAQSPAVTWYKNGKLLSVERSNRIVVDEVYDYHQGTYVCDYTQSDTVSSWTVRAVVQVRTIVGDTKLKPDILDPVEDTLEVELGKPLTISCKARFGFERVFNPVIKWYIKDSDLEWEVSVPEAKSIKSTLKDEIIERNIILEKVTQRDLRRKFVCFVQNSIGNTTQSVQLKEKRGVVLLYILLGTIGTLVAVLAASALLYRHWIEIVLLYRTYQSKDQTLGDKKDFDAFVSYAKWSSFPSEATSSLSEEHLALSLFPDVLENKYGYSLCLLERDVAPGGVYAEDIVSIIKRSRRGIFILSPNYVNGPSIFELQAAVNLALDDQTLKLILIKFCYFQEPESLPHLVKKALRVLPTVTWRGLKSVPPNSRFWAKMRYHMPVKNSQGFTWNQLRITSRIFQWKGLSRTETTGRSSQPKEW

T2: interleukin 18 binding protein (IL-18BP) (UniProt O95998 31-194)
T2 sequence (looked up): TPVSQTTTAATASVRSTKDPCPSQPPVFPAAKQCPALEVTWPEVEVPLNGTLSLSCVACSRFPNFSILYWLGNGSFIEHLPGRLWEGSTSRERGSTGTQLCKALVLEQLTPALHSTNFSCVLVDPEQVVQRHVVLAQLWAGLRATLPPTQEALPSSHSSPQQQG

T3: mouse IL-18 binding protein (mouse, UniProt Q9Z0M9 29-193)
T3 construct: also called Mouse IL18BP; Mouse IL-18BP
T3 sequence (looked up): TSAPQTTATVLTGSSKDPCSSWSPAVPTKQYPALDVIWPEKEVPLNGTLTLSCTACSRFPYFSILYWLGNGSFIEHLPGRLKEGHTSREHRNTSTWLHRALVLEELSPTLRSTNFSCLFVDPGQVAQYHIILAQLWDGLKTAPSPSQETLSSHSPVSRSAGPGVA

T4: mouse IL-18 receptor alpha (mouse, UniProt Q61098 20-326, limits assumed)
T4 construct: also called Mouse IL18Ra; mouse IL-18R alpha
T4 sequence (looked up): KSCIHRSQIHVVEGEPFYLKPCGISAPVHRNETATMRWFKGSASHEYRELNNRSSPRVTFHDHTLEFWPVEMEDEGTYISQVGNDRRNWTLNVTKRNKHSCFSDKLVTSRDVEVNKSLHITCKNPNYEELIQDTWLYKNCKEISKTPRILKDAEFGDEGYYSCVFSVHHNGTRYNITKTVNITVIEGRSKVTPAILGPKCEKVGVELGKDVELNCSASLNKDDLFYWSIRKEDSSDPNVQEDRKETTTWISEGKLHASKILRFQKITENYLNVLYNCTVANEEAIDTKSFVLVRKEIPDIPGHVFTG


How the values were obtained:
[1] = molecular target: T1, IL-18 receptor (IL-18Rα and IL-18Rβ); test: cell-based or functional assay
[2] = molecular target: T2, interleukin 18 binding protein (IL-18BP); test: cell-based or functional assay
[3] = molecular target: T3, mouse IL-18 binding protein; test: Octet BLI, monoFc scaffold
Experimental: (§1) Octet 96red instrument was used to determine affinities of IL18 proteins to BP or receptors. 5-10 ug/ml analyte proteins were used for loading on Sartorius tips (AHC or SA). […] 120-180 s loading, 200 s association and 800 s dissociation were used for kinetics. 3-7 data points were used to calculate affinities.
(§2) Several mouse variants were next tested for binding affinity to mouse IL-18R alpha and mouse IL-18BP.

[4] = molecular target: T4, mouse IL-18 receptor alpha; test: Octet BLI, monoFc scaffold
Experimental: as §1, §2

| Binder | EC50 (pM) - BP, HEK-blue re-screening [1] | EC50 (pM) + 300 nM BP, HEK-blue re-screening [2] | Ratio (HEK-blue EC50, + 300 nM BP against - BP) [2] | binding result [3] | Kd [4] |
| --- | --- | --- | --- | --- | --- |
| IL-18 variant G3D, E6G, K53G, D54A, T63S, N91Y, R104Q (ligand) YFDKLGSKLSVIRNLNDQVLFIDQGNRPLFEDMTDSDMRDNAPRTIFIISMYGASQPRGMAVSISVKSEKISTLSSENKIISFKEMNPPDYIKDTKSDIIFFQQSVPGHDNKMQFESSSYEGYFLASEKERDLFKLILKKEDELGDRSIMFTVQNED | 2.62 pM | 3.11 pM | 1.2 |  |  |
| IL-18 variant G3L, E6S, D54T, T63S, N91Y, R104Q (ligand) YFLKLSSKLSVIRNLNDQVLFIDQGNRPLFEDMTDSDMRDNAPRTIFIISMYKTSQPRGMAVSISVKSEKISTLSSENKIISFKEMNPPDYIKDTKSDIIFFQQSVPGHDNKMQFESSSYEGYFLASEKERDLFKLILKKEDELGDRSIMFTVQNED | 0.02 pM | 0.51 pM | 25.5 |  |  |
| IL-18 variant G3L, E6Y, D54T, T63S, N91Y, R104Q (ligand) YFLKLYSKLSVIRNLNDQVLFIDQGNRPLFEDMTDSDMRDNAPRTIFIISMYKTSQPRGMAVSISVKSEKISTLSSENKIISFKEMNPPDYIKDTKSDIIFFQQSVPGHDNKMQFESSSYEGYFLASEKERDLFKLILKKEDELGDRSIMFTVQNED | 0.03 pM | 0.37 pM | 12.3 |  |  |
| Comparator 5 on monoFc scaffold (Fc fusion, not shown: small tags and cut ends) HFGRLHCTTAVIRNINDQVLFVDKRQPVFEDMTDIDQSASEPQTRLIIYAYGDSRARGKAVTLSVKDSKMSTLSCKNKIISFEEMDPPENIDDIQSDLIFFQKRVPGHNKMEFESSLYEGHFLACQKEDDAFKLILKKKDENGDKSVMFTLTNLHQSNGGPSVFLFPPKPKDTLMISRTPEVTCVVVDVSHEDPEVKFNWYVDGVEVHNAKTKPREEQYNSTYRVVSVLTVLHQDWLNGKEYKCKVSNKALPAPIEKTISKAKGQPREPQVYTLPPSREEMTKNQVNLTCLVKGFYPSDIAVEWESNGQPENNYKTTPPVLDSDGSFFLNSTLTVDKSRWQQGNVFSCSVMHEALHNHYTQKSLSLS |  |  |  | no binding | 1.27 nM |
| IL-18 variant G3P, E6H, D54A, S55P, Q56K, T63S, N91M (ligand) YFPKLHSKLSVIRNLNDQVLFIDQGNRPLFEDMTDSDMRDNAPRTIFIISMYKAPKPRGMAVSISVKSEKISTLSSENKIISFKEMNPPDMIKDTKSDIIFFQRSVPGHDNKMQFESSSYEGYFLASEKERDLFKLILKKEDELGDRSIMFTVQNED | 5.4 pM | 8.23 pM | 1.5 |  |  |
| IL-18 variant G3P, E6H, N91L (ligand) YFPKLHSKLSVIRNLNDQVLFIDQGNRPLFEDMTDSDMRDNAPRTIFIISMYKDSQPRGMAVTISVKSEKISTLSSENKIISFKEMNPPDLIKDTKSDIIFFQRSVPGHDNKMQFESSSYEGYFLASEKERDLFKLILKKEDELGDRSIMFTVQNED | 3.21 pM | 5.34 pM | 1.7 |  |  |
| IL-18 variant G3Q, E6Q, K53T, D54W, S55F, N91Y (ligand) YFQKLQSKLSVIRNLNDQVLFIDQGNRPLFEDMTDSDMRDNAPRTIFIISMYTWFQPRGMAVTISVKSEKISTLSSENKIISFKEMNPPDYIKDTKSDIIFFQRSVPGHDNKMQFESSSYEGYFLASEKERDLFKLILKKEDELGDRSIMFTVQNED | 2.36 pM | 2.54 pM | 1.1 |  |  |
